According to patent US20150267232A1, “IN VIVO AND IN VITRO CARBENE INSERTION AND NITRENE TRANSFER REACTIONS CATALYZED BY HEME ENZYMES” (California Institute of Technology, priority 2012, published 2015):
Changes are numbered by the printed parent chain. Names and notes keep the numbering of the source.

B1: ABC-CIS: BM3-CIS + C400S (protein, listed as Bacillus megaterium)
chain: TIKEMPQPKTFGELKNLPLLNTDKPVQALMKIADELGEIFKFEAPGRVTRYLSSQRLIKEACDESRFDKNLSQALKFARDFAGDGLVTSWTHEKNWKKAHNILLPSFSQQAMKGYHAMMVDIAVQLVQKWERLNADEHIEVSEDMTRLTLDTIGLCGFNYRFNSFYRDQPHPFIISMVRALDEVMNKLQRANPDDPAYDENKRQFQEDIKVMNDLVDKIIADRKARGEQSDDLLTQMLNGKDPETGEPLDDGNIRYQIITFLIAGHEATSGLLSFALYFLVKNPHVLQKVAEEAARVLVDPVPSYKQVKQLKYVGMVLNEALRLWPTAPAFSLYAKEDTVLGGEYPLEKGDEVMVLIPQLHRDKTVWGDDVEEFRPERFENPSAIPQHAFKPFGNGQRASIGQQFALHEATLVLGMMLKHFDFEDHTNYELDIKETLTLKPKGFVVKAKSKKIPLGGIPSPSTEQSAKKVRKKAENAHNTPLLVLYGSNMGTAEGTARDLADIAMSKGFAPQVATLDSHAGNLPREGAVLIVTASYNGHPPDNAKQFVDWLDQASADEVKGVRYSVFGCGDKNWATTYQKVPAFIDETLAAKGAENIADRGEADASDDFEGTYEEWREHMWSDVAAYFNLDIENSEDNKSTLSLQFVDSAADMPLAKMHGAFSTNVVASKELQQPGSARSTRHLEIELPKEASYQEGDHLGVIPRNYEGIVNRVTARFGLDASQQIRLEAEEEKLAHLPLAKTVSVEELLQYVELQDPVTRTQLRAMAAKTVCPPHKVELEALLEKQAYKEQVLAKRLTMLELLEKYPACEMKFSEFIALLPSIRPRYYSISSSPRVDEKQASITVSVVSGEAWSGYGEYKGIASNYLAELQEGDTITCFISTPQSEFTLPKDPETPLIMVGPGTGVAPFRGFVQARKQLKEQGQSLGEAHLYFGCRSPHEDYLYQEELENAQSEGIITLHTAFSRMPNQPKTYVQHVMEQDGKKLIELLDQGAHFYICGDGSQMAPAVEATLMKSYADVHQVSEADARLWLQQLEEKGRYAKDVWAG
modifications: cytochrome P450NADPH-P-450 reductase precursor, cytochrome P450 (BM3), CYP102A1
notes: BM3-CIS + C400S
B2: P450BM3: wild-type cytochrome P450BM3 from Bacillus megaterium (SEQ ID NO: 1) (protein, listed as Bacillus megaterium)
chain: TIKEMPQPKTFGELKNLPLLNTDKPVQALMKIADELGEIFKFEAPGRVTRYLSSQRLIKEACDESRFDKNLSQALKFVRDFAGDGLFTSWTHEKNWKKAHNILLPSFSQQAMKGYHAMMVDIAVQLVQKWERLNADEHIEVPEDMTRLTLDTIGLCGFNYRFNSFYRDQPHPFITSMVRALDEAMNKLQRANPDDPAYDENKRQFQEDIKVMNDLVDKIIADRKASGEQSDDLLTHMLNGKDPETGEPLDDENIRYQIITFLIAGHETTSGLLSFALYFLVKNPHVLQKAAEEAARVLVDPVPSYKQVKQLKYVGMVLNEALRLWPTAPAFSLYAKEDTVLGGEYPLEKGDELMVLIPQLHRDKTIWGDDVEEFRPERFENPSAIPQHAFKPFGNGQRACIGQQFALHEATLVLGMMLKHFDFEDHTNYELDIKETLTLKPEGFVVKAKSKKIPLGGIPSPSTEQSAKKVRKKAENAHNTPLLVLYGSNMGTAEGTARDLADIAMSKGFAPQVATLDSHAGNLPREGAVLIVTASYNGHPPDNAKQFVDWLDQASADEVKGVRYSVFGCGDKNWATTYQKVPAFIDETLAAKGAENIADRGEADASDDFEGTYEEWREHMWSDVAAYFNLDIENSEDNKSTLSLQFVDSAADMPLAKMHGAFSTNVVASKELQQPGSARSTRHLEIELPKEASYQEGDHLGVIPRNYEGIVNRVTARFGLDASQQIRLEAEEEKLAHLPLAKTVSVEELLQYVELQDPVTRTQLRAMAAKTVCPPHKVELEALLEKQAYKEQVLAKRLTMLELLEKYPACEMKFSEFIALLPSIRPRYYSISSSPRVDEKQASITVSVVSGEAWSGYGEYKGIASNYLAELQEGDTITCFISTPQSEFTLPKDPETPLIMVGPGTGVAPFRGFVQARKQLKEQGQSLGEAHLYFGCRSPHEDYLYQEELENAQSEGIITLHTAFSRMPNQPKTYVQHVMEQDGKKLIELLDQGAHFYICGDGSQMAPAVEATLMKSYADVHQVSEADARLWLQQLEEKGRYAKDVWAG
modifications: cytochrome P450NADPH-P-450 reductase precursor, cytochrome P450 (BM3), CYP102A1
B3: ABC-T268A: P450BM3 variant: T268A, C400S (protein, listed as Bacillus megaterium)
chain: B2 chain with T268A, C400S
modifications: cytochrome P450NADPH-P-450 reductase precursor, cytochrome P450 (BM3), CYP102A1
notes: P450BM3 variant: T268A, C400S
B4: BM3-T268A: P450BM3 variant: T268A (protein, listed as Bacillus megaterium)
chain: B2 chain with T268A
modifications: cytochrome P450NADPH-P-450 reductase precursor, cytochrome P450 (BM3), CYP102A1

Legend:
Type in all cases: biochemical
[1] = N—H insertion, aniline with ethyl diazo acetate (EDA); settings: for TTn / % Yield: protein 10 uM, EDA 8.5 mM, aniline 20 mM, Na2S2O4 10 mM, 12 h; for % Yield: product 4.3
Method in brief: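 Final reactions contained 10 or 20 μM P450BM3 variant, 20 mM aniline, 8.5 mM EDA and 10 mM Na2S2O4 in 0.1 M phosphate pH 8.0 under argon, with MeOH cosolvent. After 12 h at 25° C, products were extracted into cyclohexane and quantified by GC-FID against phenethyl alcohol internal standard and calibration curves from authentic standards, giving yield and TTN.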

[2] = Small-scale anaerobic C—H amination with purified enzymes, azide 6; settings: for Product (7): 0.1% loading, azide 6
Procedure: (§1) Hemin also was capable of catalyzing this reaction when reduced with dithionite (Table 13).
(§2) Small scale reactions containing either 0.1% loading of ABC-CIS or ABC-T268A or 1% loading of hemin with azides 1, 4, or 6 according to standard procedures.
(§3) Small-scale reactions (400 μL) were conducted in 2 mL crimp vials (Agilent Technologies, San Diego, Calif.) containing buffer (0.1 M potassium phosphate pH 8.0), enzyme (0.1-0.5% catalyst loading) and oxygen depletion system (10× stock solution containing 14,000 U/mL catalase, 1,000 U/mL glucose oxidase dissolved in 0.1 M KPi pH 8.0). Enzyme (P450 or P411) solution and oxygen depletion mixture were added to the vial with a small stir bar before crimp-sealing. Portions of phosphate buffer (190 μL, 0.1 M, pH=8.0), glucose (40 μL, 250 mM) and NADPH (40 μL, 20 mM), or multiples thereof, were combined in a larger crimp sealed vial and degassed by sparging with argon for at least 5 min. In the meantime, the headspace of the sealed 2 mL reaction vial with the P450 solution was made anaerobic by flushing argon over the protein solution (with no bubbling). The buffer/reductant/glucose solution (270 μL) was syringed into the reaction vial with continuous argon purge of the vial headspace. An arylsulfonyl azide solution in DMSO (10 μL, 80 mM) was added to the reaction vial via a glass syringe, and the reaction was left stirring for 24 h at room temperature under positive argon pressure. Final concentrations of the reagents were typically: 2 mM arylsulfonyl azide, 2 mM NADPH, 25 mM glucose, 2 or 10 μM P450. Reactions were quenched by adding 30 μL 3 M HCl under argon. To the vials were then added acetonitrile (430 uL) and internal standard (o-toluenesulfonamide 10 mM in 50% acetonitrile 50% water, 1 mM final concentration). […] A portion (20 μL) of the supernatant was then analyzed by HPLC. […] Sultam formation was quantified comparison of integrated peak areas of internal standard and sultam at 220 nm to a calibration curve made using synthetically produced sultam and internal standard.

[3] = Small-scale anaerobic C—H amination with purified enzymes, azide 4; settings: for Product (5): 0.1% loading, azide 4
Procedure: as §1, §2, §3

Molecule | TTn [1] | % Yield [1] | Product (7) [2] | Product (5) [3] | also measured
hemin | – | – | – | – | ratio of single to double insertion products ([1]; 1 mol % hemin): 3.5 to 1; total product yield ([1]; 1 mol % hemin): 51%; Product (7) / TTN on substrate 6 ([2]; 1% loading of hemin): 55; activity on substrate 4 ([3]; free hemin, 1% loading): no measurable activity
B1 | 136 | 14% | 36 | 26 | –
B2 | 17 | – | – | – | % Yield ([1]; listed as BM3-WT): 1.7%; % Yield ([1]; listed as WT-BM3): trace amounts
B3 | 95 | 9.5% | 27 | 22 | –
B4 | 160 | 16% | – | – | –
